Laboratory results taken from article PMC10306287, “Computational design of the temperature optimum of an enzyme reaction” (Science Advances, 2023).

B1: AHA (WT AHA α-amylase) (Pseudoalteromonas haloplanktis) (protein)
chain: TPTTFVHLFEWNWQDVAQECEQYLGPKGYAAVQVSPPNEHITGSQWWTRYQPVSYELQSRGGNRAQFIDMVNRCSAAGVDIYVDTLINHMAAGSGTGTAGNSFGNKSFPIYSPQDFHESCTINNSDYGNDRYRVQNCELVGLADLDTASNYVQNTIAAYINDLQAIGVKGFRFDASKHVAASDIQSLMAKVNGSPVVFQEVIDQGGEAVGASEYLSTGLVTEFKYSTELGNTFRNGSLAWLSNFGEGWGFMPSSSAVVFVDNHDNQRGHGGAGNVITFEDGRLYDLANVFMLAYPYGYPKVMSSYDFHGDTDAGGPNVPVHNNGNLECFASNWKCEHRWSYIAGGVDFRNNTADNWAVTNWWDNTNNQISFGRGSSGHMAINKEDSTLTATVQTDMASGQYCNVLKGELSADAKSCSGEVITVNSDGTINLNIGAWDAMAIHKNAKLNTSSAS
notes: mature peptide residues 25-477, signal peptide excluded, codon-optimised in pET-22b(+), E. coli NiCo21(DE3), HisTrap purified (tag not described)

How the values were obtained:
AHA (WT AHA α-amylase) = molecular target: T1, AHA (WT AHA α-amylase) (Pseudoalteromonas haloplanktis, UniProt P29957); experiment: steady-state hydrolysis, 96-well spectrophotometer, nonlinear regression; type: biochemical; settings: 25 °C, PBS, 60 nM enzyme
T1 construct: gene amy; mature peptide residues 25-477, signal peptide excluded, codon-optimised in pET-22b(+), E. coli NiCo21(DE3), HisTrap purified (tag not described)

[1] = substrate: O=[N+]([O-])c1ccc(O[C@H]2O[C@H](CO)[C@@H](O[C@H]3O[C@H](CO)[C@@H](O[C@H]4O[C@H](CO)[C@@H](O)[C@H](O)[C@H]4O)[C@H](O)[C@H]3O)[C@H](O)[C@H]2O)c(Cl)c1; experiment: as above; type: biochemical, Pseudoalteromonas haloplanktis; settings: 25 °C, PBS, 60 nM enzyme

Molecule	Km (AHA (WT AHA α-amylase)) [µM]	Km [1] [µM]	kcat [1] [s⁻¹]
O=[N+]([O-])c1ccc(O[C@H]2O[C@H](CO)[C@@H](O[C@H]3O[C@H](CO)[C@@H](O[C@H]4O[C@H](CO)[C@@H](O)[C@H](O)[C@H]4O)[C@H](O)[C@H]3O)[C@H](O)[C@H]2O)c(Cl)c1 [2-chloro-4-nitrophenyl-α-D-maltotrioside]	2240 ± 220		
B1		2810 ± 110	1.775 ± 0.11
